# In publication PMC8811898, “Structural Insights into Methylated DNA Recognition by the Methyl-CpG Binding Domain of MBD6 from Arabidopsis thaliana”:
# T1: AtMBD6 MBD domain WT (Arabidopsis thaliana, UniProt Q9LTJ1 78-140)
# T1 sequence: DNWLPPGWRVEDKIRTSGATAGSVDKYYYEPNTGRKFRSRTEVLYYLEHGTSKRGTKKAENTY
# T2: AtMBD6 MBD domain S100R (Arabidopsis thaliana, UniProt Q9LTJ1 78-140, S100R)
# T2 sequence: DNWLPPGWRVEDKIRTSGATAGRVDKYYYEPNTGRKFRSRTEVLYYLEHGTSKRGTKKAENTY
# What was measured:
# AtMBD6 MBD domain WT = biological target: T1, AtMBD6 MBD domain WT; test: NMR titration (1H-15N HSQC); 20 mM Na phosphate pH 6.5, 150 mM NaCl, 20 C; two-state fit; NMR: 20 mM Na phosphate pH 6.5, 150 mM NaCl, 5% D2O, 20 C; EMSA: 25 mM Tris, 25 mM boric acid, 150 mM NaCl, 5% glycerol, 1 mM DTT, 4 C, 30 min; conditions: protein: recombinant; tags: GST removed by HRV3C; N-terminal GPLGS remains; blunt; self-complementary
# AtMBD6 MBD domain S100R = biological target: T2, AtMBD6 MBD domain S100R; test: NMR titration (1H-15N HSQC); slow exchange, increased affinity vs WT; no reliable Kd from NMR, ITC or FP; NMR: 20 mM Na phosphate pH 6.5, 150 mM NaCl, 5% D2O, 20 C; EMSA: 25 mM Tris, 25 mM boric acid, 150 mM NaCl, 5% glycerol, 1 mM DTT, 4 C, 30 min; conditions: protein: recombinant; tags: GST removed by HRV3C; N-terminal GPLGS remains; blunt; self-complementary
binder,measurement,setting,value
"MG (dsDNA, 5-methylcytosine at position 7 of both strands (symmetric methyl-CpG)) DNA 1: GGTATGCGCATACC DNA 2: GGTATGCGCATACC",Kd,AtMBD6 MBD domain WT,40.2 ± 0.5 µM
same,binding result,AtMBD6 MBD domain S100R,binds
